What all share (test): SPR
For assay [1], the target named is T1, VEGFR2(D2–3), domains 2 and 3 of the extracellular portion of human VEGFR2, wild type (human).
T1 chain: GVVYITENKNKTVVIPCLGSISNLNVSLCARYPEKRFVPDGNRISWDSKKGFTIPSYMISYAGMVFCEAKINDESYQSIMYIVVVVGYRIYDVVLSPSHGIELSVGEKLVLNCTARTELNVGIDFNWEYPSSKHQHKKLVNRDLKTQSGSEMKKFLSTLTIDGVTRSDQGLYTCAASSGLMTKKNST

In assay [2] the target is T1, VEGFR2(D2–3), domains 2 and 3 of the ….
The target of assay [3] is T2, VEGFR2(D2–3) D257A/E261A (human).
T2 chain: T1 chain with D124A, E128A

Changes are numbered by the printed parent chain. Where two headings read alike, the source gives them in different places.

B1: KD035 antigen-binding fragment (Fab) (Fab, V domains shown)
VH: EVQLLESGGGLVQPGGSLRLSCAASGFTFSWYVMGWVRQAPGKGLEWVSSIYPSGGATNYADSVKGRFTISRDNSKNTLYLQMNSLRAEDTAVYYCARGNYFDYWGQGTLVTVSS
VL: QSVLTQPPSVSVSPGQTASITCSGEKLGDEYASWYQQKPGQSPVLVIYQDNKRPSGIPERFSGSNSGNTATLTISGTQAMDEADYYCQAWDSSTLLFGGGTKLTVL
One may read the Kd as the concentration at which binding is half-saturated. Take B1: the Kd in assay [1] turned out to be 0.22 nM; in assay [2], 1.3 nM; in assay [3], 35.8 nM.
